Key:
Assay in all cases: HLA-binding assay
B*40:01 = target: B*40:01
B*27:05 = target: B*27:05
A*29:02 = target: A*29:02
B*35:01 = target: B*35:01

Substance	IC50 (B*27:05) [nM]	IC50 (B*35:01) [nM]	also measured
E6 81-90			IC50 (B*40:01): 0.54 nM
E5 65-73			IC50 (A*29:02): 444 nM
E6 83-90	12		

Now from value to substance, other results behind:

IC50 (B*27:05) [nM]	IC50 (B*35:01) [nM]	Substance	also measured
13		E6 137-144	
	1.4	E5 55-63	
	51	E6 52-61	

Source: US20240352087A1
